± gives the uncertainty stated by the source.

The nature of the series: amyloid nucleation score (Sup35N fusion, yeast selection) (log enrichment); library NNK2; higher = more nucleation; inactive = no reads after selection. Summed up: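 Yeast lacking psi expressed peptides of 20 random codons fused to Sup35N, received 100 μM copper sulfate for 24 hours, and were then grown for 7 days at 30°C on medium lacking adenine and uracil. Illumina sequencing of input and output plasmid inserts provided the reads. Nucleation scores are DiMSum log enrichments of output over input, centred on the mode of non-aggregating sequences. Any sequence with under 100 input reads was excluded.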

VCGGVRYYLNTFYIKR showed an amyloid nucleation score of 7.566 ± 0.054.

Consider HGICRWL, for which the amyloid nucleation score is 0.208 ± 0.25.

With YDLPFYAKEHGLPFVQWGNW, the amyloid nucleation score was 0.261 ± 0.22.

As to RWICWAMCSYLRRRKKP, the amyloid nucleation score came to 0.527 ± 0.65.

In the case of MSRIRTTTMNSGFGGYTPVL, the amyloid nucleation score was 3.06 ± 0.056.

Take RPFDHANRCRSAVYT: the amyloid nucleation score was determined as 1.63 ± 0.47.

As to CSNSFLI, the amyloid nucleation score is -0.868 ± 1.1.

Consider GSVGGSGIAACGTSDGGTVR, for which the amyloid nucleation score was determined as 2.02 ± 0.27.

As to LCPVLYT, the amyloid nucleation score entry was “inactive”.

Regarding GPVVIVDNFQYDCLA, the amyloid nucleation score is -0.109 ± 0.76.

Turning to WTTRFSCITTFLRQCPYM, the amyloid nucleation score was found to be 0.148 ± 0.79.

In turn, FYYYLFFLAIISCTGYLALS registered an amyloid nucleation score of 0.286 ± 0.42.

RSWIFVSLIDCMEWILMNGS: the amyloid nucleation score is -0.451 ± 1.

FNLYYSRGLSSCLSYSRLEV yielded an amyloid nucleation score of -0.532 ± 1.

For the substance PWHDEVVVSNQVYTYMGPSS, the amyloid nucleation score came out at 0.074 ± 0.3.

For the substance NFLRML, the amyloid nucleation score is -0.139 ± 0.21.

IALGLNSYGK had an amyloid nucleation score of -1.74 ± 0.78.

On to GQLNLGCWSYRGSRFWTWLR, for which the amyloid nucleation score result was “inactive”.

Consider NRSHCIVVQLLRCFGYVPYG, for which the amyloid nucleation score result was “inactive”.

Turning to EGLQFRCLRNSEILVCGYFS, the amyloid nucleation score came to 0.466 ± 0.54.

TRPLFTFRAMVDTRIHVFPM showed an amyloid nucleation score of 0.201 ± 0.8.

In turn, RGGSTPYYNWSAGDGWKKDK returned an amyloid nucleation score of 2.86 ± 0.065.

Turning to AYDRIY, the amyloid nucleation score turned out to be 0.367 ± 0.74.

Regarding VMTSIVFNRVSWYFLIMFVW, the amyloid nucleation score was -0.987 ± 0.55.

HWMAFVKRTANFDVIDWSAG displayed an amyloid nucleation score of -0.278 ± 0.39.

Turning to CNFHCPI, the amyloid nucleation score was determined as 2.63 ± 0.17.

Consider TMMSQVGMDR, for which the amyloid nucleation score is 0.377 ± 0.34.

Consider CVCYDLYELLAITQLHLWSF, for which the amyloid nucleation score is -0.344 ± 0.48.

In the case of RGFRGRFVFGRT, the amyloid nucleation score was -0.183 ± 0.49.

For LNMVFW, the amyloid nucleation score entry was “inactive”.

For DKYAGCNSDDINWMKDRVSG, the amyloid nucleation score stood at 0.029 ± 0.5.

Substance WLLNLERDIFLLTLSGRMIK returned an amyloid nucleation score of 0.449 ± 0.8.

NLARYLLRKELARYFMSQ gave an amyloid nucleation score of -0.578 ± 0.41.

With CVWGWNRSYTYYYGDAIGHC, the amyloid nucleation score result was “inactive”.

EMYKQVRFVVIGIIC: the amyloid nucleation score is 1.21 ± 0.24.

AYILAVVCPVVRKIGSQYDE: the amyloid nucleation score is 1.87 ± 0.15.

As to HAGVMLSFNIVVPNFTYSKE, the amyloid nucleation score came to 8.448 ± 0.051.

Regarding WFDIKL, the amyloid nucleation score was -0.367 ± 0.48.

As to LSYVWYTQIARPGNSGFNLL, the amyloid nucleation score came to 2.12 ± 0.14.

In turn, GATRALRSVTRR gave an amyloid nucleation score of 3.26 ± 0.13.

Substance LSILCGDCSDGRS came in with an amyloid nucleation score of -0.245 ± 0.2.

Take GKMPIRNNKVLLKRSATNLC: the amyloid nucleation score is 5.63 ± 0.067.

With KPWFVVDRKNFRSNSAPWLG, the amyloid nucleation score amounted to 0.073 ± 0.29.

Take KHILGQTWHSHCWFHTFEGV: the amyloid nucleation score stood at 2.26 ± 0.22.

On to VCQLQYILRNMLDKTRVSQD, for which the amyloid nucleation score turned out to be 0.912 ± 0.26.

MTKCTDHVRVDDVCLHIRGS gave an amyloid nucleation score of -0.255 ± 1.1.

Regarding MHSFHTICLLLMWRESRIAV, the amyloid nucleation score worked out at 0.45 ± 0.39.

In the case of SLYVKFPFMSDWLSMNHRMN, the amyloid nucleation score was -0.64 ± 0.34.

The substance GFIISFYISDSCKSLCWQPM showed an amyloid nucleation score of 0.339 ± 0.53.

In the case of LNRFGSSNSLITKFC, the amyloid nucleation score is -1.58 ± 1.

SYFGDFERFSFSCDHER: the amyloid nucleation score is -0.471 ± 0.61.

Substance QFEVNNLTPIGEEGGPKDCP displayed an amyloid nucleation score of 0.759 ± 0.43.

STYSIIYV: the amyloid nucleation score was 0.831 ± 0.17.

In the case of DNKWILDRLIQHSLDHKVCR, the amyloid nucleation score is -0.332 ± 0.63.

As for TVTRLSYGMFHQRNRVC, the amyloid nucleation score is -0.267 ± 0.45.

Take DEPLWKLKFKFEWFIRTLVI: the amyloid nucleation score was -1.37 ± 0.76.

WMNFCPDVGHANGGVPNRLG yielded an amyloid nucleation score of 0.583 ± 0.37.

As to TSGFRKHNVQRRLECTPGDW, the amyloid nucleation score came to 1.14 ± 0.31.

With VKCKRCSASSFAIYVEYCCT, the amyloid nucleation score was found to be 0.138 ± 0.17.

FVYQCMCFNADLCFKFRLCS: the amyloid nucleation score is 7.883 ± 0.065.

Regarding MTSLGVPNAYCEGNGAWYHR, the amyloid nucleation score worked out at 0.321 ± 0.21.

NQNVSLGVTMCFNSNYDRQG had an amyloid nucleation score of 7.53 ± 0.081.

In turn, SGNVYFLQNRFSVAKQNYTL gave an amyloid nucleation score of -0.448 ± 0.79.

HYYWSALSSAFVNSMIVR came in with an amyloid nucleation score of -1.09 ± 0.76.

The substance GMEINAYY showed an amyloid nucleation score of 0.048 ± 0.65.

Regarding RNSPSRKNL, the amyloid nucleation score was -0.415 ± 0.36.

For the substance FQDLDLVHRLHSVSVNLETE, the amyloid nucleation score stood at 0.123 ± 1.

NSRISKNNLSRSLT had an amyloid nucleation score of -0.196 ± 0.56.

The substance RVCPLLYYGRDLLQLTMSSM had an amyloid nucleation score of 0.314 ± 0.53.

Take TRISGLGPDRDFSFRAASAK: the amyloid nucleation score was -0.446 ± 0.76.

For the substance LYCIVQGKSSGIHQRATFCF, the amyloid nucleation score entry was “inactive”.

As for MDLRWKSSGRKVNLNRLIQR, the amyloid nucleation score was 4.647 ± 0.036.

Take RSDVTLDNIQMWA: the amyloid nucleation score is -1.38 ± 0.64.

Substance RERVFIGNGWTRLSRARGQA yielded an amyloid nucleation score of -1.15 ± 0.62.

RDHLFCG: the amyloid nucleation score was 0.654 ± 0.16.

With WDIYQVGGTMSLDVFVKV, the amyloid nucleation score is -0.2 ± 0.3.

SNLFGKLYVCFERDPRRKMM gave an amyloid nucleation score of 3.32 ± 0.12.

SFSVLLADGQYRCYLLDSVL had an amyloid nucleation score of -0.516 ± 0.48.

FCLALWWHYKFVLWFRNN came in with an amyloid nucleation score of -0.836 ± 0.37.

As to ITHQRSSACIVGFILRRRCN, the amyloid nucleation score was -0.369 ± 0.54.

In turn, RGDHDCW registered an amyloid nucleation score of 0.77 ± 0.32.

In turn, GYSVH came in with an amyloid nucleation score of -0.632 ± 1.1.

Substance SACDGPGTQSRIVGWGHSCV gave an amyloid nucleation score of 1.33 ± 0.27.

In turn, LMVSRFVF displayed an amyloid nucleation score of -0.206 ± 0.76.

Turning to LNYRH, the amyloid nucleation score entry is “inactive”.

Take RFFFYGLGMFYIETFYLLWF: the amyloid nucleation score entry was “inactive”.

In turn, ERYIRF displayed an amyloid nucleation score of 0.187 ± 0.32.

Substance VLVVSRA had an amyloid nucleation score of -0.514 ± 0.45.

Turning to VLFSHQDEGLWHIHVHF, the amyloid nucleation score was determined as 3.28 ± 0.052.

VYCIVRMYIALWCYVLDYVE: the amyloid nucleation score amounted to 0.34 ± 0.36.

With LNYTRCQGSTKVDHSLGNLM, the amyloid nucleation score is -0.482 ± 0.31.

Substance LCCGLFFFVRVY displayed an amyloid nucleation score of 2.06 ± 0.091.

For IGCNVESVYAGLALQMT, the amyloid nucleation score is 2.7 ± 0.18.

SRRGDRSRWCEMVMDVKVCS: the amyloid nucleation score turned out to be 5.208 ± 0.041.

With AVQEEARLALSVEPWSSDSG, the amyloid nucleation score was found to be 1.22 ± 0.28.

KVWECLEAGNFGVDMRWCDR yielded an amyloid nucleation score of 0.524 ± 0.31.

SSVRCTYGLNCNQRL had an amyloid nucleation score of 2.92 ± 0.076.

IFRVLTGVIK gave an amyloid nucleation score of -0.277 ± 0.26.

On to VHELCTYNLFEPVCSLVWYR, for which the amyloid nucleation score is 9.545 ± 0.05.

Substance PSSGPPNESAMSPITYSGEG had an amyloid nucleation score of -0.684 ± 1.1.

FLDMSSRIMRARRPNCFFWC: the amyloid nucleation score is -0.022 ± 0.31.

DMLPVRVVAHWCVVARCTRV: the amyloid nucleation score came to 0.965 ± 0.2.

In turn, MSVMWLASLISFQLFMAAQL showed an amyloid nucleation score of 0.062 ± 0.79.

In the case of VNWEHVRIVELFYKGMSQMA, the amyloid nucleation score is -0.549 ± 1.

As to AAKTNCDC, the amyloid nucleation score is -0.01 ± 1.

VSFNGSVGMS came in with an amyloid nucleation score of -0.907 ± 1.1.

In turn, MCEYLWCMGACNQASLTYLS showed an amyloid nucleation score of 5.787 ± 0.032.

The substance APFCSIVTTDVP showed an amyloid nucleation score of -0.363 ± 1.1.

MDYWVFMPFQLHRLCCYTPL returned an amyloid nucleation score of -0.303 ± 0.24.

For GTIYLFRWSFMWRFWMGTGL, the amyloid nucleation score is -0.644 ± 0.54.

For ASRKSLPEWLWIAWRHASGT, the amyloid nucleation score was 1.29 ± 0.15.

Regarding FRRQSPNMQPSCWTDHGLRG, the amyloid nucleation score was -0.105 ± 1.1.

As to LFWELEM, the amyloid nucleation score worked out at 4.7 ± 0.091.

With PFVVNVAGLKMSVRV, the amyloid nucleation score is 3.71 ± 0.07.

Take LRSWSLAMRGDIMGTVRWLR: the amyloid nucleation score came to 0.413 ± 0.56.

As for DSSRRM, the amyloid nucleation score is -1.43 ± 0.78.

As to CNRGLKFAVGFKLLTIPTSL, the amyloid nucleation score result was “inactive”.

In the case of RSCSWLLIYRIVILVG, the amyloid nucleation score entry was “inactive”.

Regarding AIVDFTKNFIQCAY, the amyloid nucleation score entry is “inactive”.

In the case of TFELNLLVPAPNCRFHDLRR, the amyloid nucleation score was 1.46 ± 0.22.

Consider RFLLVRSCQAISNRGNGLRE, for which the amyloid nucleation score is 5.08 ± 0.042.

ILSSFMQ displayed an amyloid nucleation score of -0.2 ± 0.41.

With KENDVNLD, the amyloid nucleation score was found to be 1.5 ± 0.44.

As to FLMACPMFIIVYLCRT, the amyloid nucleation score entry was “inactive”.

STCKLWGVQWFPGGEDRNWK registered an amyloid nucleation score of -0.155 ± 0.42.

As for AKPTRGSCSGT, the amyloid nucleation score came out at 2.79 ± 0.12.

In turn, LCGFTIPSNVSLGRR registered an amyloid nucleation score of 4 ± 0.11.

RLSPPRNWLVRRRRIFNGLL yielded an amyloid nucleation score of -0.757 ± 0.76.

Turning to HSRQCFTHFGYFTGLGRVRV, the amyloid nucleation score worked out at 2.18 ± 0.1.

VLCTYRGLDITL came in with an amyloid nucleation score of 0.166 ± 0.21.

The substance TQCRFRTSRVDICKIVKPGS came in with an amyloid nucleation score of 0.177 ± 0.65.

Substance FGIFEQMMFLHNVCSDFTAS yielded an amyloid nucleation score of -0.447 ± 1.1.

Regarding LVWRDV, the amyloid nucleation score was found to be 0.729 ± 0.51.

In the case of ISACFKMGNRGYVICAMSRV, the amyloid nucleation score was -0.306 ± 0.45.

For the substance LAWITKSMFLL, the amyloid nucleation score was 0.672 ± 0.56.

On to RKILVKMNYFMRHLMNCVTE, for which the amyloid nucleation score result was “inactive”.

For VGGGVHGEFGHHYCPSVLGL, the amyloid nucleation score was 1.81 ± 0.2.

Take KRLCYVSYWIYSYSRDGELK: the amyloid nucleation score was -1.23 ± 1.1.

As for ATYIGRSNVSRWVVRAMSSS, the amyloid nucleation score was determined as 5.25 ± 0.073.

Substance WCVRELLE showed an amyloid nucleation score of -0.077 ± 0.39.

The substance AKGLG registered an amyloid nucleation score of 1.52 ± 0.31.

Values taken from the supplement of paper PMC12042874.
